Reference: PMC4893161, “The Dynamic Localization of Cytoplasmic Dynein in Neurons Is Driven by Kinesin-1” (Neuron, 2016)

Legend:
[1] = target: T1, mCherry-tagged DIC1a (dynein intermediate chain 1, isoform a), wild-type (UniProt Q63100 1-643); assay: co-IP; COS cells cotransfected with mCherry-tagged DIC1a (wild-type or WD mutants) and HA-tagged KLC1 or KLC2; IP with anti-mCherry; western blotting with anti-DIC and anti-HA; conditions: partners not purified
T1 construct: cytoplasmic dynein intermediate chain 1, neuron-specific isoform DIC1a with both alternatively spliced regions (AS loop 1 with WD1, AS loop 2 with WD2); also called WT DIC1a; source: COS cells, cotransfected, in lysate
T1 sequence (Q63100 whole entry, canonical isoform): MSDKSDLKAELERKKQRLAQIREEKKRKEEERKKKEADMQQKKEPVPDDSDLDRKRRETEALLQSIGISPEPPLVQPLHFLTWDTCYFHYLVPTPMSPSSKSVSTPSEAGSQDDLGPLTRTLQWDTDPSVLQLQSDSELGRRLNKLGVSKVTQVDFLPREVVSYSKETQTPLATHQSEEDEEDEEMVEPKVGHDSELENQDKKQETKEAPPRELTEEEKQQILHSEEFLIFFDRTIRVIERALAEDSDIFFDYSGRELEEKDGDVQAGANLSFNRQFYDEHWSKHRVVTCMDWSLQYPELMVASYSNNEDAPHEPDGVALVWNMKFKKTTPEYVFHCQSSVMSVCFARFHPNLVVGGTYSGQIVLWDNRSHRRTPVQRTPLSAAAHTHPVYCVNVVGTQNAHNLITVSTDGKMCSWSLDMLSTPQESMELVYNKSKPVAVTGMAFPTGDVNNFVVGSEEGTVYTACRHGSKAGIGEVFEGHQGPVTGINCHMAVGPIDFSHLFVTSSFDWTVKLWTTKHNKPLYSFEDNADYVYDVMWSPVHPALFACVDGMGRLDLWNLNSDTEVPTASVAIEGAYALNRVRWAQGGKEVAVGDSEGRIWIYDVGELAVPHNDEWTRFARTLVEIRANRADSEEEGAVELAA

[2] = target: T2, WD1^pept, TAMRA-conjugated 11-amino-acid peptide centered on the first tryptophan motif of DIC1 (TAMRA-conjugated (position not given)); assay: fluorescence polarisation; TAMRA-conjugated DIC1 tryptophan-motif peptides with purified KLC1 or KLC2 TPR domain; KD values determined at 150 mM NaCl; conditions: both partners purified
T2 construct: 11 residues of dynein intermediate chain 1 centered on the first tryptophan motif (WD1) in AS loop 1; also called WD1 peptide; peptide of the first DIC1 tryptophan motif

B1: HA-tagged KLC2 (kinesin light chain 2) (natural protein, UniProt O88448 1-599, looked up)
chain: MATMVLPREEKLSQDEIVLGTKAVIQGLETLRGEHRALLAPLASHEAGEAEPGSQERCLLLRRSLEAIELGLGEAQVILALSSHLGAVESEKQKLRAQVRRLVQENQWLREELAGTQQKLQRSEQAVAQLEEEKQHLLFMSQIRKLDEMLPQEEKGDVPKDSLDDLFPNEDEQSPAPSPGGGDVAAQHGGYEIPARLRTLHNLVIQYASQGRYEVAVPLCKQALEDLEKTSGHDHPDVATMLNILALVYRDQNKYKDAAHLLNDALAIREKTLGKDHPAVAATLNNLAVLYGKRGKYKEAEPLCKRALEIREKVLGKFHPDVAKQLSNLALLCQNQGKAEEVEYYYRRALEIYATRLGPDDPNVAKTKNNLASCYLKQGKYQDAETLYKEILTRAHEKEFGSVNGENKPIWMHAEEREESKDKRRDRRPMEYGSWYKACKVDSPTVNTTLRTLGALYRPEGKLEAAHTLEDCASRSRKQGLDPASQTKVVELLKDGSGRGHRRGSRDVAGPQSESDLEESGPAAEWSGDGSGSLRRSGSFGKLRDALRRSSEMLVRKLQGGGPQEPNSRMKRASSLNFLNKSVEEPVQPGGRVFLTAAL
notes: kinesin light chain 2; source: COS cells, cotransfected, in lysate
- fold co-immunoprecipitated relative to KLC1 [1]: 5 fold

B2: KLC1^TPR, purified TPR domain of KLC1 (domain or fragment)
chain: YEIPARLRTLHNLVIQYASQGRYEVAVPSCKQALEDLEKTSGHDHPDVATMLNILALVYRDQNKYKDAANLLNDALAIREKTLGRDHPAVAATLNNLAVLYGKRGKYKEAEPLCKRALEIREKVLGKDHPDVAKQLNNLALLCQNQGKYEEVEYYYQRALGIYQTKLGPDRTPNVAKTKNNLASCYLKQGKFKQAETLYKEILTRAHEAEFGSVDDENKPIWMHAEEREECKGKQKDGSAFGEYGGWYKACKVDSPTVTTTLKNLGALYRRQGKFEAAETLEEAAMRSRKQGL
- Kd [2]: 7.58 ± 0.61 µM
